# Measurements as given in IntAct's records for PubMed 29039417.
# B1: BBSome complex member BBS2 (Homo sapiens), Q9BXC9 (parent)
# chain: MLLPVFTLKLRHKISPRMVAIGRYDGTHPCLAAATQTGKVFIHNPHTRNQHVSASRVFQSPLESDVSLLSINQAVSCLTAGVLNPELGYDALLVGTQTNLLAYDVYNNSDLFYREVADGANAIVLGTLGDISSPLAIIGGNCALQGFNHEGSDLFWTVTGDNVNSLALCDFDGDGKKELLVGSEDFDIRVFKEDEIVAEMTETEIVTSLCPMYGSRFGYALSNGTVGVYDKTSRYWRIKSKNHAMSIHAFDLNSDGVNELITGWSNGKVDARSDRTGEVIFKDNFSSAIAGVVEGDYRMDGHIQLICCSVDGEIRGYLPGTAEMRGNLMDTSAEQDLIRELSQKKQNLLLELRNYEENAKAELASPLNEADGHRGIIPANTRLHTTLSVSLGNETQTAHTELRISTSNDTIIRAVLIFAEGIFTGESHVVHPSIHNLSSSICIPIVPPKDVPVDLHLKAFVGYRSSTQFHVFESTRQLPRFSMYALTSLDPASEPISYVNFTIAERAQRVVVWLGQNFLLPEDTHIQNAPFQVCFTSLRNGGHLHIKIKLSGEITINTDDIDLAGDIIQSMASFFAIEDLQVEADFPVYFEELRKVLVKVDEYHSVHQKLSADMADHSNLIRSLLVGAEDARLMRDMKTMKSRYMELYDLNRDLLNGYKIRCNNHTELLGNLKAVNQAIQRAGRLRVGKPKNQVITACRDAIRSNNINTLFKIMRVGTASS
# partner: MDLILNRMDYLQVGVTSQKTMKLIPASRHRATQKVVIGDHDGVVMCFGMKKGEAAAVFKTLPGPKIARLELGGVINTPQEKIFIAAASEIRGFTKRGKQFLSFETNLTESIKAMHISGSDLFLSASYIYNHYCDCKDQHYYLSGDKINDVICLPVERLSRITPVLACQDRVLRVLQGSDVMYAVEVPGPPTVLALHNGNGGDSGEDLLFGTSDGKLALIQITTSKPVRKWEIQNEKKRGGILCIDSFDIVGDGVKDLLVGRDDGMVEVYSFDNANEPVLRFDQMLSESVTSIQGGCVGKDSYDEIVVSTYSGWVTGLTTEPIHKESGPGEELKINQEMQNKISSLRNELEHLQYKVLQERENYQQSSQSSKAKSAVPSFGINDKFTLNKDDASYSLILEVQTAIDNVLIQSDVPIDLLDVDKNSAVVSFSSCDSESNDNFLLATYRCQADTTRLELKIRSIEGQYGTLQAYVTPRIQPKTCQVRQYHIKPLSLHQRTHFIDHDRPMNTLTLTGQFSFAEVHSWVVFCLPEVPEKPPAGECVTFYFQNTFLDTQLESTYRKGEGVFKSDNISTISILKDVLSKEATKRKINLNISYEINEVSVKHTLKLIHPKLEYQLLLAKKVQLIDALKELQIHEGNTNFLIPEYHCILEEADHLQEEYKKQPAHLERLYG
# Variants of: B1
# Conditions: with BBS7, Q8IWZ6-2
row,effect of a mutation on the interaction,Variant
1,with no effect,N436K
2,with no effect,N436A
3,with no effect,N436E
4,with no effect,P444K
5,with no effect,P444E
6,with no effect,P444A
7,with no effect,S433E
8,with no effect,S433K
9,with no effect,S433A
10,with no effect,S474E
11,with no effect,S474K
12,with no effect,S474A
13,with no effect,K458A
14,with no effect,K458E
15,with no effect,A419K
16,with no effect,A419E
17,disrupting interaction strength,I443K
18,with no effect,I443A
19,with no effect,I443E
20,with no effect,V430K
21,with no effect,V430E
22,with no effect,V430A
23,with no effect,L455A
24,disrupting interaction strength,L455E
25,with no effect,L455K

row,effect of a mutation on the interaction,Variant
1,with no effect,V461K
2,with no effect,V461E
3,disrupting interaction strength,V461M
4,disrupting interaction strength,V461A
5,with no effect,Q468K
6,with no effect,Q468A
7,with no effect,Q468E
8,disrupting interaction strength,Q468L
9,with no effect,V429E
10,with no effect,V429K
11,with no effect,V429A
12,disrupting interaction strength,L457C
13,disrupting interaction strength,L457K
14,disrupting interaction strength,L457E
15,with no effect,L457A
16,with no effect,A459E
17,disrupting interaction strength,A459K
18,disrupting interaction strength,F472L
19,with no effect,F472E
20,disrupting interaction strength,F472A
21,with no effect,F472K
22,with no effect,I441A
23,with no effect,I441K
24,disrupting interaction strength,I441E
25,disrupting interaction strength,I441R

row,effect of a mutation on the interaction,Variant
1,with no effect,T467K
2,with no effect,T467E
3,with no effect,T467A
4,with no effect,D454K
5,with no effect,D454A
6,with no effect,D454E
7,with no effect,I434A
8,with no effect,I434K
9,with no effect,I434E
10,with no effect,I422K
11,with no effect,I422E
12,with no effect,I422A
13,with no effect,F460E
14,with no effect,F460A
15,with no effect,F460K
16,with no effect,S466A
17,disrupting interaction strength,S466E
18,with no effect,S466K
19,with no effect,E426K
20,with no effect,E426A
21,with no effect,H456E
22,with no effect,H456K
23,with no effect,H456A
24,with no effect,T424E
25,with no effect,T424A

row,effect of a mutation on the interaction,Variant
1,with no effect,T424K
2,with no effect,G425E
3,with no effect,G425A
4,with no effect,G425K
5,with no effect,V453A
6,disrupting interaction strength,V453K
7,with no effect,V453E
8,with no effect,R464E
9,with no effect,R464K
10,with no effect,R464A
11,disrupting interaction strength,R464T
12,with no effect,F423K
13,with no effect,F423E
14,with no effect,F423A
15,disrupting interaction strength,L437K
16,with no effect,L437E
17,with no effect,L437A
18,with no effect,V471K
19,with no effect,V471A
20,with no effect,V471E
21,with no effect,Y463E
22,disrupting interaction strength,Y463A
23,with no effect,Y463K
24,with no effect,S438E
25,with no effect,S438K

row,effect of a mutation on the interaction,Variant
1,with no effect,S438A
2,disrupting interaction strength,P447K
3,disrupting interaction strength,P447E
4,with no effect,P447A
5,with no effect,V451A
6,with no effect,V451E
7,with no effect,V451K
8,with no effect,G421K
9,with no effect,G421E
10,with no effect,G421A
11,with no effect,H435A
12,with no effect,H435E
13,with no effect,H435K
14,with no effect,H431K
15,with no effect,H431E
16,with no effect,H431A
17,with no effect,S439K
18,with no effect,S439E
19,with no effect,S439A
20,with no effect,C442E
21,with no effect,C442K
22,with no effect,C442A
23,with no effect,V446A
24,with no effect,V446E
25,with no effect,V446K

row,effect of a mutation on the interaction,Variant
1,with no effect,H428K
2,with no effect,H428A
3,with no effect,H428E
4,with no effect,E420A
5,with no effect,E420K
6,with no effect,P432A
7,with no effect,P432E
8,with no effect,P432K
9,with no effect,D450E
10,disrupting interaction strength,D450K
11,with no effect,D450A
12,with no effect,S427K
13,with no effect,S427A
14,with no effect,S427E
15,with no effect,S465K
16,with no effect,S465A
17,with no effect,S465E
18,with no effect,P448K
19,with no effect,P448E
20,with no effect,P448A
21,with no effect,H470A
22,with no effect,H470E
23,with no effect,H470K
24,disrupting interaction strength,I445A
25,with no effect,I445K

row,effect of a mutation on the interaction,Variant
1,disrupting interaction strength,I445E
2,with no effect,F418K
3,with no effect,T475E
4,with no effect,T475A
5,disrupting interaction strength,S440A
6,disrupting interaction strength,S440F
7,with no effect,S440K
8,disrupting interaction strength,S440E
9,with no effect,G462A
10,with no effect,G462K
11,with no effect,G462E
12,with no effect,E473K
13,with no effect,E473A
14,with no effect,F469E
15,disrupting interaction strength,F469M
16,with no effect,F469A
17,disrupting interaction strength,F469S
18,with no effect,F469K
19,with no effect,P452A
20,with no effect,P452E
21,with no effect,P452K
22,with no effect,K449E
23,with no effect,K449A
